# Results from the supplement of paper PMC9942255.
# Test system: Bacillus subtilis DB104 (SP-AmyQ fusion secretion)
# Test: AmyQ secretion efficiency, weighted average sort bin (1 = best secretion, 10 = worst) (bin number (weighted average, 1-10)); higher = lower secretion efficiency
# In short: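 A B. subtilis DB104 library carrying amyE-integrated fusions of designed signal peptides to mature AmyQ was encapsulated at about 0.3 cells per ~65 nL alginate bead with fluorescein-starch and grown about 13 h at room temperature. Following nile red staining, occupied beads were flow-sorted as large particles into 10 equally populated bins by green/red fluorescence ratio, and the bin amplicons were Illumina-sequenced. The secretion score is the read-frequency-weighted average bin number normalised to beads per bin, leaving out low-abundance sequences.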
sequence,measurement,value
MPIKKKVMMCLAVTLVFGSMDEETLTNSGGFKE,AmyQ secretion efficiency,6.94
MLKKKWMVGLLAGCLAAGGFSYNLFATEN,AmyQ secretion efficiency,5.92
MRKKKRHSRLIVLLFFSFFGVQPIHAKKQ,AmyQ secretion efficiency,7.01
MRNLTKTSLLLAGLCTAAQMVFVTHASLEES,AmyQ secretion efficiency,3.72
MKKLLSTAAGLLLSLTATSVSAHYV,AmyQ secretion efficiency,4.36
MKKVLMAFIICLSLILSVLAAPPSGAKAASV,AmyQ secretion efficiency,1.88
MKTLRTKCRKKILSGVIFFGLKIDAKDI,AmyQ secretion efficiency,6.97
MSIWIVLFLVLIAAAISIFVYVSTGSEK,AmyQ secretion efficiency,6.85
MRKTRRKKKRGLMMFGTITAASASPD,AmyQ secretion efficiency,5.82
MLCVMMLLFSAIASFPVSMQAKDQ,AmyQ secretion efficiency,5.6
MKKKQVMLALTAAAGLGLTALHSAPAAKQAPL,AmyQ secretion efficiency,4.93
MKKGIIRFLLVSFVLFFALSTGITGVQGAPA,AmyQ secretion efficiency,4.19
MKVPKTMNFSFTLLSTAAGLLLSLTATSVSAHYV,AmyQ secretion efficiency,5.47
MTKKAWFLPLVCVLLISGWLAPAASASDQTT,AmyQ secretion efficiency,2.72
MKLWMRKTLVVLFTIVTFGLVSPPAAIMADKP,AmyQ secretion efficiency,1.63
MMKKGLLAGALTATVLFGTCAVDVPGIISPKTAEAAKR,AmyQ secretion efficiency,4.03
MKKKLAAGLTASAIVGTTLVVTPVEAATI,AmyQ secretion efficiency,2.24
MKTKTLFIFSAILTLSIFAPNEVFAQTA,AmyQ secretion efficiency,1.58
MKKAAAVLLSLGLVFGFSYGAGHVWEAKTK,AmyQ secretion efficiency,5.37
MKKIMSAFVGMVLLTIFCRRRQASAAYD,AmyQ secretion efficiency,7.16
MKKVVSALSISALALSVSGVASAHEI,AmyQ secretion efficiency,2.8
MNIKKFAKQATVLTFTTALLAGGATQAFAKKR,AmyQ secretion efficiency,3.43
MKKIMSAFVGMVLLTIFCFSPQASAADD,AmyQ secretion efficiency,3.32
MKKFIFNMFIGLLFMLCLAALFTIGFPAQQADAAEA,AmyQ secretion efficiency,2.9
MKKAFILSAAAAVGLFTFGGVQQASGKEL,AmyQ secretion efficiency,3.67
MKKVLMAFIICLSLILSVLAAPPSGAKEESV,AmyQ secretion efficiency,3.2
MKLSVKIAGVLTVAAAAMTAKMYATVKGN,AmyQ secretion efficiency,6.87
MMKKGLLAGALTATVLFGTCAVGVPGIISPKTAEAASQ,AmyQ secretion efficiency,1.35
MRPVFPLILSAVLFLSCFFAATVFFASASKR,AmyQ secretion efficiency,7
MKLSVKIAGVLTVAAAAMTAKMYHTAKGN,AmyQ secretion efficiency,6.87
MKKAFILSAAAAVGLFTFKKKRRRASAKEL,AmyQ secretion efficiency,7.21
MKRFILVLSFLSIIVKKRIQTNASPM,AmyQ secretion efficiency,7.76
MKKRKRRNFKRFIAAFLVLALMISLVPADKLAKST,AmyQ secretion efficiency,4.89
MPYLKRVLLLLVTGLFMSLFAVTATISAQTG,AmyQ secretion efficiency,1.51
MKSCKQLIVCSLAAILLLIPSVSFAAPD,AmyQ secretion efficiency,2.43
MFKFKKNFLVGLSAALMSIEDEEDDASAAST,AmyQ secretion efficiency,6.33
MLKKKWMVGLLAGCLAAGGFSYNAFQTEN,AmyQ secretion efficiency,6.95
MFNRLFRVCFLAALIMAFVFFIVFTLPNSVYAQKP,AmyQ secretion efficiency,2.03
MKKRLIAPMLLSAASLAFFAMSGSEQAAAY,AmyQ secretion efficiency,3.75
MKRLLVSLRVWMVFLMNWVTPDRKTPAAAVY,AmyQ secretion efficiency,7.55
MTSAFILSAAAAVGLFTFGGVQQASAKEL,AmyQ secretion efficiency,2.86
MKKLALTAAAGLGLTALHSAPAAKAAPL,AmyQ secretion efficiency,3.02
MKKRFFGPIILAFILFAGAIEIPS,AmyQ secretion efficiency,5.48
MKSCKQLIVCSLAAILLLIPSVSFAAPR,AmyQ secretion efficiency,1.96
MKKLLAAGIIGLSIASPSFAAEK,AmyQ secretion efficiency,4.78
MRIKQCVICLSLLVFGTTAAHAEET,AmyQ secretion efficiency,2.98
MKKELLASLVLCLSLSPLVSTNEVFAATT,AmyQ secretion efficiency,2.73
MKLAKRVSALTPSTTLAIISTGSAKAKEL,AmyQ secretion efficiency,7.54
MRKNRILALFVLSLGLLSFMVTPCSAASK,AmyQ secretion efficiency,2.01
MLCVMMLLFSAIAPDPSGAQAKDQ,AmyQ secretion efficiency,4.72
MGLGKKLSVAVAASFMSLSISLFVVQAAEG,AmyQ secretion efficiency,3.73
MRKKCSVCLWILVLLLSCKKRKKRAYAATS,AmyQ secretion efficiency,6.88
MKKAFILSAAAAVGLFTFGGVQQISAKEL,AmyQ secretion efficiency,3.06
MRGKSAVLLSLIMLIAGFLISFSFKK,AmyQ secretion efficiency,6.28
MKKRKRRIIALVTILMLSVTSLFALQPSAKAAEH,AmyQ secretion efficiency,2.06
MKVLLSALLLLLFAFEPSFASGKKL,AmyQ secretion efficiency,5.58
MKLAKRVSALTPSTTLAIKKKKRAKAKEL,AmyQ secretion efficiency,7.08
MLCVMMLLFSAIASFPVSIQAKDQ,AmyQ secretion efficiency,6.18
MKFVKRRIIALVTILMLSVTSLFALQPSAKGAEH,AmyQ secretion efficiency,3.59
MKRLFMKSSKRLFAVVFVFAVKGAPAKAETH,AmyQ secretion efficiency,7.81
MKKQSYSATTAVVLGSTLFAGAASAQSI,AmyQ secretion efficiency,5.86
MNKFLKSNFRFRRKRKKGISLLASSNFIKASND,AmyQ secretion efficiency,8.33
MRKYTVIASILLSFLSVLSGGHHESKAFPR,AmyQ secretion efficiency,4.58
MRSKKLWISLLFALTLIFTMAFSNMSAQHAGK,AmyQ secretion efficiency,6.69
MKSKWMSGLLLVAVGFSFTQVMSHAGET,AmyQ secretion efficiency,6.67
MKKCLLFLTTIALILSLSTNAFYKNT,AmyQ secretion efficiency,8.02
MGMKKKLRKKRASAALGLALVGGGTWAAFN,AmyQ secretion efficiency,5.51
MKKGIIRFLLVSFVLFFALSTGITGVQLAPA,AmyQ secretion efficiency,5.59
MKKQIITATTAVVLGSTLFAGAVSAQSI,AmyQ secretion efficiency,1.69
MMGKGLLAGALTATVLFGTCAVDVPGIISPKTAEAASQ,AmyQ secretion efficiency,1.48
MKLAKRVSALTPSTTLAITAKTKEL,AmyQ secretion efficiency,7.68
MKLRKVLTGSVLSLGLLVSASPIFATSP,AmyQ secretion efficiency,1.63
MGLGKKLSVAVAASFMSLSISLPGKQAAEG,AmyQ secretion efficiency,4.55
MKKRKRRNFKRFIAAFLVLALMISLVPADSLAKST,AmyQ secretion efficiency,2.3
MKLWMRKTLVVLFTIVTFGLVVPPAALMADKP,AmyQ secretion efficiency,2.83
MKLAKRVSALTPSTTLAITNKAKEL,AmyQ secretion efficiency,7.12
MNKKYFVLIVCIIFTSALFPTRRRVTAAQG,AmyQ secretion efficiency,3.61
MKKRMMMIMFFGPIILAFILFAGAIAIPS,AmyQ secretion efficiency,7.34
MKLKSKLLLMCLALLIVFVGATTIANAPTH,AmyQ secretion efficiency,8.04
MTKKAWFLPLVCVLLISGWLAPAASMSAQTT,AmyQ secretion efficiency,3.47
MMKKLFHSTLIVLLFFSFFGVQPVASSASTIHAKKQ,AmyQ secretion efficiency,2.41
MKKIVSILFMFGLVMGFSQFQPSTVFARRK,AmyQ secretion efficiency,5.68
MLKKKWMVGLLAGCLAAGGFSYNDFATEN,AmyQ secretion efficiency,5.83
MKKTIMSFVAVAALSTTAFGAHTSAKEI,AmyQ secretion efficiency,2.69
MFKKQSRATSALTFSLSLVLPLDGHAKAQEV,AmyQ secretion efficiency,6.63
MKRITINIRRKKIAAAVISLTGTAEAAEK,AmyQ secretion efficiency,6.82
MFKKLLLATSALTFSLSLVLDAKAQEV,AmyQ secretion efficiency,2.17
MKKLLAAGIIGLLTVSIASPWFAAEK,AmyQ secretion efficiency,7.98
MRNLTKTSLLLAGLCTAAQMVFVTHMSAEES,AmyQ secretion efficiency,3.28
MIKKLAAGLTASAIVGTTLVVTPAEAATI,AmyQ secretion efficiency,2.3
MKKAFLVFLSVVLVTTVFLVKQQESVAQGKQL,AmyQ secretion efficiency,3.58
MKKWIYVVLVLSIAGIGGFSVHAASR,AmyQ secretion efficiency,5.28
MNLRKILLSSALSLGMLVSAAPVLDTSS,AmyQ secretion efficiency,6.16
MRRKKRKAVLLSLIMLIAGFLISFSFQM,AmyQ secretion efficiency,7.79
MTKKAWFLPLVCVLLIRKKLAPAASASAQTT,AmyQ secretion efficiency,7.9
MRPVFPIMNNILLILSAVLFLSCFFGARQTEASASKR,AmyQ secretion efficiency,1.84
MLKRTSFVSSLFISSAVLLSILLPSGQLHAQSA,AmyQ secretion efficiency,1.71
MKKAAAVLLSLGLVFGFSYGAGHVAEAATS,AmyQ secretion efficiency,2.5
MRFTKTVGFLSVLGLAAVFPLTAQAEKA,AmyQ secretion efficiency,2.59
MKRKLLSSLAISALSLGLLVSAPTASFVAES,AmyQ secretion efficiency,6.45
MSGTIFFGPIILAFILFAGAIAIPS,AmyQ secretion efficiency,6.8
MRKYTVIASILLSFLSVLSGGHHEWKAFPV,AmyQ secretion efficiency,4.79
MKSKGSIMACLILFSFTITTFINTETRSAFSN,AmyQ secretion efficiency,8.47
MKLSVKIAGVLTVAAAAMKATAKGN,AmyQ secretion efficiency,7.76
MKKAAAVLLSLGLVFGFSYGAGHVAEAAED,AmyQ secretion efficiency,3.87
MKKRITYSLLALLAVVAFAFTDSSKSKAAEA,AmyQ secretion efficiency,3.09
MKKKQVMLALTAAAGLGLTALHSAPAAKAAPK,AmyQ secretion efficiency,1.55
MRSYIKVLTMCFLGLILFVPTTAPSPGFALADNS,AmyQ secretion efficiency,4.85
MKIRKMFMFILLSSALSFGMLISAVPALAAGT,AmyQ secretion efficiency,2.01
MKRKKMSGLLLVAVGFSFTQVMVHAGET,AmyQ secretion efficiency,6.25
MRKKTKNRLISSVLSTVVISSLLFKRKAGASSK,AmyQ secretion efficiency,7.11
MTSGTLWISLLFALTLIFTMAFSNMSAQAAGK,AmyQ secretion efficiency,2.62
MKKIVIILFMFILVMSSGFSQFQPSTVFAADK,AmyQ secretion efficiency,3.08
MKRTWNVCLTALLSVLLVAGSVVPFHAEAKKP,AmyQ secretion efficiency,1.9
MIKRFSLIMMTGLLFGLTSPAFAAEK,AmyQ secretion efficiency,4.15
MKKIWIGMLAAAVLLLMVPKVSPAVPSGFSLADAA,AmyQ secretion efficiency,6.35
MNLRKILLFIALFLMMLTVSAAPVLATSS,AmyQ secretion efficiency,1.67
MFKKHTISLLIIFLLASAVLAKPMEAHTV,AmyQ secretion efficiency,2.67
MKSKWMSGLLLVAVGFSFTQVMVHGGET,AmyQ secretion efficiency,7.46
MKRKLKRKKAISALSLGLLVSAPTASFAAES,AmyQ secretion efficiency,4.1
MKKRLIAPMLLSAASLAFFAMSGSSVTAGAQAAAY,AmyQ secretion efficiency,6.18
MKKQIITATTAVVLGSTLFAGAASAKRK,AmyQ secretion efficiency,2.25
MRKSLITLGLASIVIGTSSFLIPFTSKTASAETL,AmyQ secretion efficiency,2.2
MKSKWMSGLLLVAVGTQVMVHAGET,AmyQ secretion efficiency,5.76
MFKKHTISLLIIFLLALTSAVLAKPIEAHTV,AmyQ secretion efficiency,2.73
MKKWIYVVLVLSIAGIGGFSVHAKKR,AmyQ secretion efficiency,6.58
MLTKRLLTIYIMLLGLIKKKRKKAQAEEK,AmyQ secretion efficiency,7.57
